For the experiment, the target named is T1, HER2-ECD (human epidermal growth factor receptor 2, extracellular domain) (Homo sapiens, UniProt P04626).
T1 construct: also called HER-ECD
Put plainly: ELISA. Particulars: one partner purified.

We go through 20 molecules from publication PMC4994030 (Scientific Reports, 2016).

Substitutions are numbered along the chain they refer to.

B1: GH2-42 scFv (scFv, V domains shown)
VH: EVQLVESGGGLVQPGGSLRLSCAASGFTISNWGIHWVRQAPGKGLEWVAGIGPYGGYTSYADSVKGRFTISADTSKNTAYLQMNSLRAEDTAVYYCARFGFYFDGIMDYWGQGTLVTVSS
VL: DIQMTQSPSSLSASVGDRVTITCRASQDVSSGVAWYQQKPGKAPKLLISGPTGLYSGVPSRFSGSGSGTDFTLTISSLQPEDFATYYCQQYYDWPLTFGQGTKVKRG
notes: also called scFv(GH2-42); source: E. coli ER2738, secreted, in filtered culture supernatant
In the case of B1, the binding result is listed as “binds”.

B2: GH2-62 scFv (scFv, V domains shown)
VH: B1 VH with S30N, G52W, Y54F, S59Y, G100D, F101Y, Y102L, F103N, D104N, I106G
VL: DIQMTQSPSSLSASVGDRVTITCRASQDVGGYVAWYQQKPGKAPKLLIFGASGLYSGVPSRFSGSGSGTDFTLTISSLQPEDFATYYCQQFYSSPLTFGQGTKVEIK
notes: source: E. coli ER2738, secreted, in filtered culture supernatant
With B2, the binding result was “binds”.

B3: GH2-92 scFv (scFv, V domains shown)
VH: B1 VH with S30G, G50S, Y54F, G55W, S59F, F101N, Y102H, F103Y
VL: DIQMTQSPSSLSASVGDRVTITCRASQDVNDGVAWYQQKPGKAPKLLIFGSPYLFSGVPSRFSGSGSGTDFTLTISSLQPEDFATYYCQQYFSWPITFGQGTQVGIK
notes: as for B2
For B3, the binding result is “binds”.

B4: GH2-38 scFv (scFv, V domains shown)
VH: B1 VH with N31D, W32G, F101D, Y102N, D104I, I106V
VL: B2 VL with G30F, Y32G, F49Y, A51P, G53Y, F91Y, Y92S, S94W, L96I
notes: as for B2
With B4, the binding result was “binds”.

B5: GH2-107 scFv (scFv, V domains shown)
VH: B1 VH with W32F, G50Y, T91A, G100H, F101I, Y102H, F103N, D104L, G105W, I106G
VL: B2 VL with G30S, G31D, Y32G, F49S, S52G, G53Y, S94W, L96I
notes: as for B2
With B5, the binding result was “binds”.

B6: GH2-40 scFv (scFv, V domains shown)
VH: B1 VH with S30N, N31S, G50W, G55W, Y57F, G100D, F101G, Y102H, I106V
VL: B3 VL with D31N, F49S, S51T, Y53W, F55Y, S93D, I96L, Q103K, G105E
notes: as for B2
Regarding B6, the binding result is given as “binds”.

B7: GH2-72 scFv (scFv, V domains shown)
VH: EVQLVESGGGLVQPGGSLRLSCAASGFTISNGGIHWVRQAPGKGLEWVAYIWPSGGYTFYADSVKGRFTISADTSKNTAYLQMNSLRAEDTAVYYCARFFNNDWIGMDYWGQGTLVTVSS
VL: B2 VL with G31Y, Y32F, F49S, A51T, S52T, G53W, F91Y, Y92S, S93N, S94W
notes: as for B2
For the molecule B7, the binding result is on record as “binds”.

B8: GH2-31 scFv (scFv, V domains shown)
VH: B1 VH with S30N, W32F, G50S, Y54F, G55W, F101N, Y102D, F103Y, I106V
VL: B1 VL with S31W, S49Y, G50S, T52P, G53W, D93N, L96I, K105E, R106I, G107K
notes: as for B2
With B8, the binding result is listed as “binds”.

B9: GH2-24 scFv (scFv, V domains shown)
VH: EVQLVESGGGLVQPGGSLRLSCAASGFTIDNGSIHWVRQAPGKGLEWVAFIGPSGGYTFYADSVKGRFTISADTSKNTAYLQMNSLRAEDTAVYYCARFGWHNVDNMDYWGQGTLVTVSS
VL: B2 VL with G31W, Y32G, F49S, G50S, A51T, S52R, G53S, F91Y, S93N, S94W
notes: as for B2
As to B9, the binding result is recorded as “binds”.

B10: GH2-61 scFv (scFv, V domains shown)
VH: B1 VH with S30N, G52W, S59Y, G100Y, F101N, Y102H, F103H, D104G, I106V
VL: DIQMTQSPSSLSASVGDRVTITCRASQDVGSNVAWYQQKPGKAPKLLISWSTSLYSGVPSRFSGSGSGTDFTLTISSLQPEDFATYYCQQYGGWPITFGQGTKVEIK
notes: also called scFv(GH2-61); source: E. coli ER2738, secreted, in filtered culture supernatant
Consider B10, for which the binding result is given as “binds”.

B11: GH2-101 scFv (scFv, V domains shown)
VH: B1 VH with S30N, N31S, W32Y, G50S, G55W, G100Y, F101I, Y102W, I106L
VL: B1 VL with T5A, S31N, S49Y, P51T, G53S, D93S, K105E, R106I, G107K
notes: as for B2
For the molecule B11, the binding result is recorded as “binds”.

B12: GH2-11 scFv (scFv, V domains shown)
VH: B1 VH with S30N, N31D, K65R, G100V, F101N, Y102W, F103D, D104F, G105Y, I106G
VL: B2 VL with G31D, Y32G, F49Y, G50S, S52G, G53W, F91Y, S94Y, L96I
notes: as for B2
For the molecule B12, the binding result was “binds”.

B13: GH2-26 scFv (scFv, V domains shown)
VH: B1 VH with N31D, W32Y, G50F, G55W, S59Y, G100Y, Y102F, F103G, I106L
VL: B10 VL with G30S, N32G, S49Y, W50G, S51T, T52S, G92F, G93N
notes: as for B2
As for B13, the binding result is “binds”.

B14: GH2-75 scFv (scFv, V domains shown)
VH: B1 VH with F27S, S30G, W32S, G50Y, G100D, F101D, F103H, D104W, G105D, I106G
VL: DIQMTQSPSSLSASVGDRVIITCRASQDVSGYVAWYQQKPGKAPKLLIYSSGVPSRFSGSGSGTDFTLTISSLQPEDFATYYCQQYYNWPVTFGQGTKVEIK
notes: also called scFv(GH2-75); source: E. coli ER2738, secreted, in filtered culture supernatant
For the molecule B14, the binding result is reported as “binds”.

B15: GH2-102 scFv (scFv, V domains shown)
VH: B1 VH with S30N, N31G, W32G, G50S, E89G, F101H, Y102H, F103Y, I106H
VL: B2 VL with G31S, Y32N, F49Y, S52P, G53Y, F91Y, S93N, S94W
notes: as for B2
Take B15: the binding result is on record as “binds”.

B16: GH2-103 scFv (scFv, V domains shown)
VH: B1 VH with S30D, N31E, W32Y, G50F, G55W, F101H, Y102L, F103H, I106L
VL: B10 VL with G30F, N32G, W50G, S51T, T52P, S53F, G92Y, G93N
notes: as for B2
As for B16, the binding result is reported as “binds”.

B17: GH2-4 scFv (scFv, V domains shown)
VH: B9 VH with D30N, N31S, S54F, F59S, H102N, N103D, V104Y, N106F
VL: B2 VL with G30F, Y32G, F49Y, G50S, G53F, F91Y, Y92F, S93D, S94W, L96I
notes: as for B2
Regarding B17, the binding result is recorded as “binds”.

B18: GH2-8 scFv (scFv, V domains shown)
VH: GVQLVESGGGLVQPGGSLRLSCAASGFTIGSSGIHWVRQAPGKGLEWVAGIWPYWGSTYYADSVKGRFTISADTSKNTAYLQMNSLRAEDTAVYYCARFGVGYHYYMDYWGQGTLVTVSS
VL: B2 VL with G31W, Y32W, F49S, S52T, F91S, Y92W, S93D, L96I
notes: as for B2
Consider B18, for which the binding result was “binds”.

B19: GH2-12 scFv (scFv, V domains shown)
VH: EVQLVESGGGLVQPGGSLRLSCAASGFTINDWGIHWVRQAPGKGLEWVAGIWPYWGYTSYADSVKGRFTISADTSKNTAYLQMNSLRAEDTAVYYCARYHVYFWWMDYWGQGTLVTVSS
VL: B2 VL with G30S, G31N, Y32N, F49Y, A51P, G53F, F91Y, S93N, S94Y, L96I
notes: as for B2
B19: the binding result is recorded as “binds”.

B20: GH2-55 scFv (scFv, V domains shown)
VH: EVQLVESGGGLVQPGGSLRLSCAASGFTIDGFSIHWVRQAPGKGLEWVAGIGPYGGYTSYADSVKGRFTISADTSKNTAYLQMNSLRAEDTAVYYCARFDIWHNFGMDYWGQGTLVTVSS
VL: B2 VL with G30D, Y32N, F49S, G50S, S52G, G53S, F91S, Y92W, S94W
notes: as for B2
Consider B20, for which the binding result is given as “binds”.
